The values below come from publication PMC4383067 (Acta Neuropathologica Communications, 2015).

For the assay, the target named is Amyloid fibrils of full-length human PrP (human, UniProt P04156 23-230). Nature of the assay: static light scattering kinetics. The following applies: both partners purified.

B1: Full-length human acetylcholinesterase (dimeric, recombinant) (enzyme)
chain: EGREDAELLVTVRGGRLRGIRLKTPGGPVSAFLGIPFAEPPMGPRRFLPPEPKQPWSGVVDATTFQSVCYQYVDTLYPGFEGTEMWNPNRELSEDCLYLNVWTPYPRPTSPTPVLVWIYGGGFYSGASSLDVYDGRFLVQAERTVLVSMNYRVGAFGFLALPGSREAPGNVGLLDQRLALQWVQENVAAFGGDPTSVTLFGESAGAASVGMHLLSPPSRGLFHRAVLQSGAPNGPWATVGMGEARRRATQLAHLVGCPPGGTGGNDTELVACLRTRPAQVLVNHEWHVLPQESVFRFSFVPVVDGDFLSDTPEALINAGDFHGLQVLVGVVKDEGSYFLVYGAPGFSKDNESLISRAEFLAGVRVGVPQVSDLAAEAVVLHYTDWLHPEDPARLREALSDVVGDHNVVCPVAQLAGRLAAQGARVYAYVFEHRASTLSWPLWMGVPHGYEIEFIFGIPLDPSRNYTAEEKIFAQRLMRYWANFARTGDPNEPRDPKAPQWPPYTAGAQQYVSLDLRPLEVRRGLRAQACAFWNRFLPKLLSATDTLDEAERQWKAEFHRWSSYMVHWKNQFDHYSKQDRCSDL
notes: also called AChE; dimeric AChE
As a reminder, the stoichiometry N is the number of molecules, sites or subunits per partner or assembly. As for B1, the “stoichiometry N” value is 1.
